{"source": "patent US7960140B2", "about": "“Avidin mutants” (Orion Diagnostica Oy, priority 2003, dated 2011)", "molecules": {"B1": {"name": "scAvd: single-chain avidin, two dcAvd fused tail-to-head via 12 amino-acid linker GGSGSGSGSGSG (SEQ ID NO:24) (protein, listed as Gallus gallus)", "chain": "MVHATSPLLLLLLLSLALVAPGLSARKRTQPTFGFTVNWKFSESTTVFTGQCFIDRNGKEVLKTMWLLRSSVNDIGDDWKATRVGINIFTRLRTQKEGGSGGSARKCSLTGKWTNDLGSNMTIGAVNSRGEFTGTYITAVTATSNEIKESPLHGTQNTINKSGGSTTVFTGQCFIDRNGKEVLKTMWLLRSSVNDIGDDWKATRVGINIFTRLRTQKEGGSGGSARKCSLTGKWTNDLGSNMTIGAVNSRGEFTGTYITAVTATSNEIKESPLHGTQNTINKRTQPTFGFTVNWKFSEGGSGSGSGSGSGRTQPTFGFTVNWKFSESTTVFTGQCFIDRNGKEVLKTMWLLRSSVNDIGDDWKATRVGINIFTRLRTQKEGGSGGSARKCSLTGKWTNDLGSNMTIGAVNSRGEFTGTYITAVTATSNEIKESPLHGTQNTINKSGGSTTVFTGQCFIDRNGKEVLKTMWLLRSSVNDIGDDWKATRVGINIFTRLRTQKEGGSGGSARKCSLTGKWTNDLGSNMTIGAVNSRGEFTGTYITAVTATSNEIKESPLHGTQNTINKRTQPTFGFTVNWKFSE"}}, "key": {"[1]": {"assay": "Dissociation assay with fluorescent biotin conjugate (ArcDia BF560)", "assay_type": "binding", "experimental": "The biotin-binding properties of produced mutagenised dcAvds were analysed by method based on the quenching of biotin-coupled fluorescent probe ArcDia BF560 (ArcDia Ltd., Turku, Finland) due to binding to avidin (FIG. 4). PerkinElmer LS55 luminometer was used for measurements. […] The spectra of 50 nM biotin-Bf560 solution in 50 mM Na-phosphate containing 650 mM NaCl was measured (red). Chicken avidin (Belovo S. A., Bastogne, Belgium) was added to final subunit concentration of 83 nM and green spectra was obtained.\nBriefly, 50 nM free biotin-Bf560 solution in 50 mM Na-phosphate containing 650 mM NaCl was measured using excitation at 560 nm (2.5 nm slit) and emission was collected at 578 nm (5 nm slit). Continuous stirring (setting low) was used throughout the analysis. After 100 sec measurement, the protein under study was added to final biotin-binding subunit concentration 50 nM and the measurement was continued for 500 sec. […]\nA one-phase dissociation model was used to analyse the data, as described elsewhere (Hytönen et al., (2004) Biochem J, in press). The dissociation rate constant (kdiss) was determined by fitting the equation −kdisst=ln(B/Bo) to the data. Bo is the measured maximum binding (100%) determined as the difference between the fluorescence of the free dye and the fluorescence of the protein-dye complex, and B is the amount of complex measured as a function of time. The first 500 seconds were omitted from the data to abolish the effect of the fast initial phase characteristic of avidin-BF560-biotin interaction (FIG. 9). The fraction of fluorescent biotin released after one-hour was determined, as well as the times of half-maximal (t½) and quarter-maximal (t¼) release. For dual chain avidins with modified binding sites, it was hypothesized that 50% of the binding sites would behave like those of wt avidin (cpAvd5S4 binding site of dcAvd was not modified). The dissociation data measured for wt avidin divided by two was subtracted from the data measured for the modified dual chain avidins and the dissociation curve was fitted to the difference as above."}, "[2]": {"assay": "Free biotin-binding sites by quenching of intrinsic fluorescence on biotin titration", "experimental": "The number of free binding sites was determined based on the quenching of the intrinsic fluorescence of avidin due to binding of biotin (Laitinen et al., (2003) J. Biol. Chem. 278, 4010-4014). The protein sample under study diluted to 2 ml volume in 50 mM NaPO4 pH 7.0+650 mM NaCl was titrated with 1 μl additions of 70 μM biotin solution in the same buffer. The protein concentration in this assay was 500±15 nM, and the concentration was determined by comparing the emission intensity averaged over 340-350 nm (excitation at 280 nm) to avidin standard sample. The protein sample was continuously mixed by magnetic stirrer.\nIntensity from each biotin concentration was averaged over eight second measurement. The end-point of the quenching was determined by fitting a line to obtained data and determining the total quenching by averaging the last three measured intensities (FIG. 12, Table 6)."}, "[3]": {"assay": "Microplate temperature stability assay", "assay_type": "physicochemical", "experimental": "FIG. 13. Temperature sensitivity determined by microplate assay. The avidin, dcAvd and scAvd sample is treated with the indicated temperature for certain time and the ability to bind biotinylated alkaline phosphatase was determined by coating the microplate with the sample.\nThe stability of the protein was studied by microplate assay as described in the article by Nordlund et al., (2003) J Biol Chem 278, 2479-83. In this assay, 50 mM Na—PO4 buffer containing 100 mM NaCl was used and the protein was heated to 80° C. or 90° C. for certain time. After that, the capacity to bind fluorescent biotin was measured as described in the article by Nordlund et al., (2003) J Biol Chem 278, 2479-83."}, "[4]": {"assay": "Radiobiotin dissociation assay", "assay_type": "binding", "conditions": "various temperatures", "experimental": "FIG. 11. Radiobiotin dissociation assay for scAvd. Temperature-dependence of biotin dissociation rates measured by the [3H]biotin dissociation assay. Dissociation rate constant of radiobiotin was determined at various temperatures. The dissociation rate constants determined previously for avidin and streptavidin are also shown. The determined kdiss-values are connected by lines.\nRadiobiotin assay was performed for scAvd in various temperatures."}}, "data": [{"molecule": "B1", "values": [{"measurement": "Dissociation of fluorescent biotin Release 1 h", "setting": "[1]; 25° C.", "result": 8.8, "unit": "%"}, {"measurement": "Dissociation of fluorescent biotin kdiss", "setting": "[1]; 25° C.", "result": "1.3e-05", "unit": "s⁻¹"}, {"measurement": "Dissociation of fluorescent biotin Release 1 h", "setting": "[1]; 50° C.", "result": 62.3, "unit": "%"}, {"measurement": "Dissociation of fluorescent biotin kdiss", "setting": "[1]; 50° C.", "result": 0.00025, "unit": "s⁻¹"}, {"measurement": "quenching measured for whole emission spectrum (290-500 nm) due to biotin binding", "setting": "[2]; 290-500 nm", "result": 39.7, "unit": "%"}, {"measurement": "Fluorescence quenching (350 nm)", "setting": "[2]; intrinsic fluorescence, emission 350 nm, due to binding of biotin", "result": 44.4, "unit": "%"}, {"measurement": "Number of free biotin-binding sites per quaternary unit", "setting": "[2]; protein 500±15 nM, titrated with biotin", "result": 3.2}, {"measurement": "activity after 32 min treatment", "setting": "[3]; 80° C., 32 min", "result": 26, "unit": "%"}, {"measurement": "heat inactivation", "setting": "[3]; 90° C.", "result": "fast denaturation"}, {"measurement": "heat inactivation", "setting": "[3]; 100° C.", "result": "fast inactivation"}, {"measurement": "dissociation of [3H]biotin", "setting": "[4]", "result": "extremely slow dissociation of [3H]biotin"}]}]}
